Laboratory results from patent US10087225B2, “Formulation of MK2 inhibitor peptides” (MOERAE MATRIX, INC., priority 2015, dated 2018).

Experiments:
Experiment in all cases: Kinase Profiling Assay
Assay type in all cases: biochemical
IR(h), activated = IR(h), activated (Homo sapiens, UniProt P06213)
EphB2(h) = biological target: T1, EphB2(h) (Homo sapiens, UniProt P29323); conditions: for % activity: 100 μM
T1 sequence (P29323 19-1055): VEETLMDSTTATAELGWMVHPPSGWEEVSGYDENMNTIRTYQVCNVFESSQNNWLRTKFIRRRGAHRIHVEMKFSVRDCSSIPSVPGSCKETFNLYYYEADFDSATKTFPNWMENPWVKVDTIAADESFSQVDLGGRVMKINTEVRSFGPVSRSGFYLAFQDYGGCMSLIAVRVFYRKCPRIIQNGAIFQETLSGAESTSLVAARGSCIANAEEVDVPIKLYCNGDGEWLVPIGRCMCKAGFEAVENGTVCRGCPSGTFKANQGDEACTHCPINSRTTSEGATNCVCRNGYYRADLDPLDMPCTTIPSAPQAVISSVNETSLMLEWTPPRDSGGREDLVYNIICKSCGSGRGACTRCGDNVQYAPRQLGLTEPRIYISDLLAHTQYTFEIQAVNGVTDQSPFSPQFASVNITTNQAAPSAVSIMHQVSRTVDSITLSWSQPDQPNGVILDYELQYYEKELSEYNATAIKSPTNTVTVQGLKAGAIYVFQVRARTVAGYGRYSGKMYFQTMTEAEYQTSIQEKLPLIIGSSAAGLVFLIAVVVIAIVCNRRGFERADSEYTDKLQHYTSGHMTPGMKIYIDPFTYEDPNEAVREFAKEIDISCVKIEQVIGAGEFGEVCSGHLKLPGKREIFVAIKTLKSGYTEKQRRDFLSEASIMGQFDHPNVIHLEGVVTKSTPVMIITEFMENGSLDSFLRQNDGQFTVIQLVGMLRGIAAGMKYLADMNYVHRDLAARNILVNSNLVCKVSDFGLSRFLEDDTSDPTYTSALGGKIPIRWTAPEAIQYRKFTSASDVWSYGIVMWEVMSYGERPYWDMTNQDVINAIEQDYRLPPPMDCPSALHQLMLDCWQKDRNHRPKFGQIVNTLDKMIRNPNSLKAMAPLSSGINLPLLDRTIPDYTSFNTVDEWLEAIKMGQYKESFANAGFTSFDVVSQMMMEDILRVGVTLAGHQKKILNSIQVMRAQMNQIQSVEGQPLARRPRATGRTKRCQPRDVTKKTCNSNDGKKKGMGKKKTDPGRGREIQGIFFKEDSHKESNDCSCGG

cKit(V654A)(h) = cKit(V654A)(h) (Homo sapiens, UniProt P10721, V654A)
NLK(h) = biological target: T2, NLK(h) (Homo sapiens, UniProt Q9UBE8)
T2 sequence (Q9UBE8 1-527): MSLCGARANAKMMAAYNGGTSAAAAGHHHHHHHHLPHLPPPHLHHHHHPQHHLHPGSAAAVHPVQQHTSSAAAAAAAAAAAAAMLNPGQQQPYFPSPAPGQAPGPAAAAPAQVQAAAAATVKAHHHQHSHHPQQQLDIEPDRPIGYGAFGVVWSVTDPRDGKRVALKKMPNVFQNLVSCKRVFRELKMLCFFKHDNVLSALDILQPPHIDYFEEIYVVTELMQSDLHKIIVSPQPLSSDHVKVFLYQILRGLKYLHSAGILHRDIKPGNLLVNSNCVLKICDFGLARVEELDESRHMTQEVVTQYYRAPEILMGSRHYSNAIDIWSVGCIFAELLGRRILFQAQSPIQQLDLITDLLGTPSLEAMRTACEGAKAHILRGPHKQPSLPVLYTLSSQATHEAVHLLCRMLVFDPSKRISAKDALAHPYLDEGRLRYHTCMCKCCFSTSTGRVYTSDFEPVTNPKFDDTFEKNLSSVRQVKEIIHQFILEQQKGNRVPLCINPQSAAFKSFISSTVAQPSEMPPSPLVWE

CaMKI(h) = CaMKI(h) (Homo sapiens, UniProt Q14012); conditions: 100 μM
Chain of CaMKI(h) (Q14012 whole entry): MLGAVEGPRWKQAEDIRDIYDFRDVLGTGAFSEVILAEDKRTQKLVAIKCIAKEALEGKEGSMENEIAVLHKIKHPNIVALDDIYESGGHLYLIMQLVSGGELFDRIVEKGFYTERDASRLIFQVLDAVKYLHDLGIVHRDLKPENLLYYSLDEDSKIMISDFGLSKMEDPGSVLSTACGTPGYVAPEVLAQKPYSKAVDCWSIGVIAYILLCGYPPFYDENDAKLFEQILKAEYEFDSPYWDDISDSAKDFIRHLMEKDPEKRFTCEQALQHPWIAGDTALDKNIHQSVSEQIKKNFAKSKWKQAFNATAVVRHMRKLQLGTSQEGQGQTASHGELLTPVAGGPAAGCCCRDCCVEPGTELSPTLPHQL

PKA(h) = PKA(h) (Homo sapiens, UniProt P17612); conditions: 100 μM
Rse(h) = biological target: T3, Rse(h) (Homo sapiens, UniProt Q06418); conditions: 100 μM
T3 sequence (Q06418 41-890): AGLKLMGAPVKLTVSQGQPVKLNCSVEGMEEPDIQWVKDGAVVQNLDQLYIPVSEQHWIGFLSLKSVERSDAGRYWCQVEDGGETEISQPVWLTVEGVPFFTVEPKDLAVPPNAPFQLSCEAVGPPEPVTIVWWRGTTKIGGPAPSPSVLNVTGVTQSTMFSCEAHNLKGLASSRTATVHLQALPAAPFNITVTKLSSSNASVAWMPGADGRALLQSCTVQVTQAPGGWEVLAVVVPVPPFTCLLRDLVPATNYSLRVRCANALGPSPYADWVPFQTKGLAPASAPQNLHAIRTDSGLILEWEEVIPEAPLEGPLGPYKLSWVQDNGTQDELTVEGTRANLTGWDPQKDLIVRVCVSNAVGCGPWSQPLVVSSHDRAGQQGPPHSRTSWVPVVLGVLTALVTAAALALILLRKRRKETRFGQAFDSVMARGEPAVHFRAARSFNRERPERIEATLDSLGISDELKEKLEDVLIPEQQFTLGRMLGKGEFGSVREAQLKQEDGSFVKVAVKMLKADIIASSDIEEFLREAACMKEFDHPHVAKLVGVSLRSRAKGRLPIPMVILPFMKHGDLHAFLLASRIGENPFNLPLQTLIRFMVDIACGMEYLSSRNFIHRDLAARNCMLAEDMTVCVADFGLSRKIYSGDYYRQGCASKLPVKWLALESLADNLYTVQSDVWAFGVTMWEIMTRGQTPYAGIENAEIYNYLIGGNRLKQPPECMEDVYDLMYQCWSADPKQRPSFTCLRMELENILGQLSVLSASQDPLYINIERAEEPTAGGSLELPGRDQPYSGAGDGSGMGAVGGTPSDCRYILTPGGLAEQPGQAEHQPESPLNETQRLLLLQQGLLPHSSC

CK1δ(h) = CK1δ(h) (Homo sapiens, UniProt P48730); conditions: 100 μM
Chain of CK1δ(h) (P48730 whole entry): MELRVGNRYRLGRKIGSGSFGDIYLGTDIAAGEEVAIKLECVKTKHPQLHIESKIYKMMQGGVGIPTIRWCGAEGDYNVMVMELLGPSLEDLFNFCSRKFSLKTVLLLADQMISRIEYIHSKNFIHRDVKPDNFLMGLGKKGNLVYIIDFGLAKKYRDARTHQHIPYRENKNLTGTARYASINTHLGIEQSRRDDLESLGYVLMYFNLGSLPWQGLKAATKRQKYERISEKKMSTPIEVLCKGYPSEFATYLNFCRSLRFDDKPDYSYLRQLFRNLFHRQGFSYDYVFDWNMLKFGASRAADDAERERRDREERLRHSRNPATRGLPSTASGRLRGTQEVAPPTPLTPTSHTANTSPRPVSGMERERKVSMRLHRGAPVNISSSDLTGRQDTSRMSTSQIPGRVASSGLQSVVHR

PKBα(h) = PKBα(h) (Homo sapiens, UniProt P31749); conditions: 100 μM
Chain of PKBα(h) (P31749 whole entry): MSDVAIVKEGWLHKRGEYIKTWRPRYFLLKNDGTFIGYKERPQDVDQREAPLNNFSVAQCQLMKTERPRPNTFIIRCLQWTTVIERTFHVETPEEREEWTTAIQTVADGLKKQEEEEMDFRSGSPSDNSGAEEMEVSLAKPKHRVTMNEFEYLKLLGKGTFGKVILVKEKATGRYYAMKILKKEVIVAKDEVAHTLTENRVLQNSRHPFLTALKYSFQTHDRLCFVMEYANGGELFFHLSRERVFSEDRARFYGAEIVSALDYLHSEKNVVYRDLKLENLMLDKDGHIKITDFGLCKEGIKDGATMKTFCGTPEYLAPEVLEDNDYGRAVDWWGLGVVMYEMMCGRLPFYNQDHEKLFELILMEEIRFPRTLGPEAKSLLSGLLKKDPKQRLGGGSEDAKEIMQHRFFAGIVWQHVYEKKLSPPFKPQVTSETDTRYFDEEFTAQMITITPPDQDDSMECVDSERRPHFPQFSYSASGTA

CDK5/p25(h) = CDK5/p25(h) (Homo sapiens, UniProt Q00535); conditions: 100 μM
Chain of CDK5/p25(h) (Q00535 whole entry): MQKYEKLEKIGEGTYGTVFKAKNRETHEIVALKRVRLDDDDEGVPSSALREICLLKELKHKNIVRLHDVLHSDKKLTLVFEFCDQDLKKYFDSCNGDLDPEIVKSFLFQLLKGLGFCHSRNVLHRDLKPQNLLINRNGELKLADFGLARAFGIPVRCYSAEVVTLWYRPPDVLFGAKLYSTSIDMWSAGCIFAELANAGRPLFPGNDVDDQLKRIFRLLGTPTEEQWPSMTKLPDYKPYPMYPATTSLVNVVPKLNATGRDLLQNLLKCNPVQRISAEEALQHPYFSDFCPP
Chain of CDK5/p25(h) (Q15078 99-307 partner limits assumed): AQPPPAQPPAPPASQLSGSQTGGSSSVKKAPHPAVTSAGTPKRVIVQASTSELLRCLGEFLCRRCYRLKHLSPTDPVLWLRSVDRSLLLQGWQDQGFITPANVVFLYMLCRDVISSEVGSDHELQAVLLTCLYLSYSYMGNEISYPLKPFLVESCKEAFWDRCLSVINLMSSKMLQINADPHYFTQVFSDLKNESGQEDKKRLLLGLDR

Lyn(h) = Lyn(h) (Homo sapiens, UniProt P07948); conditions: 100 μM
Chain of Lyn(h) (P07948 whole entry): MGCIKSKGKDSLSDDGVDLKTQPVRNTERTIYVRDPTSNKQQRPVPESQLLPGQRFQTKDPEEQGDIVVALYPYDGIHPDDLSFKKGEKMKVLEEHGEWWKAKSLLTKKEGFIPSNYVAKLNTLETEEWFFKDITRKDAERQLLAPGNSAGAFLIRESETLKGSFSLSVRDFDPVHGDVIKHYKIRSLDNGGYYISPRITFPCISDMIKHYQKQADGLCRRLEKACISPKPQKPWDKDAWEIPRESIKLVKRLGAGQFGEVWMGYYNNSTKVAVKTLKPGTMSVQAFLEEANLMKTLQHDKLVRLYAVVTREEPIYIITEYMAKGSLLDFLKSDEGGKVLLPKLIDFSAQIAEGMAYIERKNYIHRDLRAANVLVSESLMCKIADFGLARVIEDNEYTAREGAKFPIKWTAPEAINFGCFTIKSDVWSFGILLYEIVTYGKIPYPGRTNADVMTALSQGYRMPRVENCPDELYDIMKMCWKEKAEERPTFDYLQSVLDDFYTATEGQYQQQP

Substance	activity at 100 µM (IR(h), activated) [%]	activity at 100 µM (EphB2(h)) [%]	activity at 100 µM (cKit(V654A)(h)) [%]	activity at 100 µM (NLK(h)) [%]	% activity (IR(h), activated; 100 μM) [%]	% activity (CaMKI(h)) [%]	% activity (PKA(h)) [%]	% activity (Rse(h)) [%]	% activity (EphB2(h)) [%]	% activity (CK1δ(h)) [%]	% activity (PKBα(h)) [%]	% activity (cKit(V654A)(h); 100 μM) [%]	% activity (CDK5/p25(h)) [%]	% activity (Lyn(h)) [%]	% activity (NLK(h); 100 μM) [%]
H-YARAAARQARAKALARQLGVAA-OH [MMI-0100]	127	68	69	100											
HRRIKAWLKKIKALARQLGVAA (Mammalian) [MMI-0500]					90	-1	118	63	70	78	30	223	66	31	19
YARAAARQARAKALNRQLGVA (Mammalian) [MMI-0200]						21	110	88	128	92	110		97	98	
